For assay [1], the target named is T1, CD20-Hoc fusion protein (human; T4 phage, UniProt P11836 142-187; P18056 1-376, limits assumed).
T1 construct: also called Hoc-CD20; Hoc-CD
Put plainly: SPR; KD on Hoc divided by KD on Hoc-CD20. In general terms: In SPR one partner is held on a chip, and binding of the other changes the refractive index at the surface.

Assay [2] deals with T2, Hoc (T4 phage, UniProt P18056 1-376, limits assumed).
T2 construct: Purified Hoc used as control for the fusion partner; also called outer capsid protein Hoc of T4 phage
Put plainly: SPR.

The target in assay [3] is T1, CD20-Hoc fusion protein. Put plainly: SPR.
In assay [4] the target is T1, CD20-Hoc fusion protein. Put plainly: SPR binding kinetics.

Positions count from the first letter of the chain named. Names may count otherwise.

T1 sequence (P11836 142-187, tags or fused parts left off): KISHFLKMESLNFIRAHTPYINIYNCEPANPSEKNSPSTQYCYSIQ
T2 sequence (P18056 whole entry, the tested form may be a part): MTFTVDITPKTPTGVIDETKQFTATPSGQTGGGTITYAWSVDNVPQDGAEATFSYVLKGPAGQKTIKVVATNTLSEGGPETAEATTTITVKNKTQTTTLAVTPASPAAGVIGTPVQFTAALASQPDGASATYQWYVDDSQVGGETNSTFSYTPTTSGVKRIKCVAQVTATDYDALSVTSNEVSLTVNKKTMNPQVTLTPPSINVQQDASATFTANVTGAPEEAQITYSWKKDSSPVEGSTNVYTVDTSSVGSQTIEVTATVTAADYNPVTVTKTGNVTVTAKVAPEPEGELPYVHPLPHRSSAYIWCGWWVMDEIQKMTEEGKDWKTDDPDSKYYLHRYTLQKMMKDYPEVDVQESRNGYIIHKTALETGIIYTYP

B1: M24E (VHH)
VHH: DVQLQASGGGLVQAGGSLRLSCAASGSTFSIKHHGWYRRAPGNQREWVAGISSENITNVAEAVKGRFTISRDNAKNTVYLQMNSLKVEDTAVYYCYAQDNDYRFLHRFWGQGTQVTVSL
notes: also called bt-M24E; anti-CD20 sdAb M24E
In general, Kd refers to the constant that tells how readily two partners part at equilibrium. Low values mean tighter binding, high ones weaker binding. In general, koff refers to a measure of how fast the partners let go of each other. A higher koff goes with fast dissociation. By kon is commonly meant the second-order rate constant of association. A lower kon goes with slower complex formation. Regarding B1, the “Ratio Hoc KD/Hoc-CD20 KD” value in assay [1] amounted to 40 ratio. In assay [2], this molecule showed a dissociation constant (Kd) of 230 nM, a koff of 0.046 s⁻¹ and a kon of 200000 M⁻¹ s⁻¹. In assay [3], this molecule came in with a Kd of 5.7 nM, a koff of 0.0043 s⁻¹ and an on-rate (kon) of 750000 M⁻¹ s⁻¹. Also, the “differential binding to CD20-Hoc fusion against Hoc” value (“differential binding” for short) in assay [4] was roughly 1000 fold.

B2: M112D (VHH)
VHH: B1 VHH with G15E, S30G, D101N
notes: also called bt-M112D; anti-CD20 sdAb M112D
Turning to B2, the “Ratio Hoc KD/Hoc-CD20 KD” value in assay [1] was 81 ratio. In assay [2], this molecule had a Kd of 2100 nM, a koff of 0.32 s⁻¹ and an association rate constant (kon) of 150000 M⁻¹ s⁻¹. In assay [3], binding was put at a Kd of 26 nM, the off-rate constant (koff) stood at 0.007 s⁻¹ and the kon stood at 280000 M⁻¹ s⁻¹. Besides, the “differential binding” value in assay [4] is roughly 100 fold.

B3: M28C (VHH)
VHH: B1 VHH with S52N, E61G, Y94F
notes: also called bt-M28C; anti-CD20 sdAb M28C
Consider B3, for which the “Ratio Hoc KD/Hoc-CD20 KD” value in assay [1] worked out at 353 ratio. In assay [2], this molecule came in with a Kd of 5300 nM, a koff of 0.36 s⁻¹ and a kon of 68000 M⁻¹ s⁻¹. Moreover, in assay [3], the dissociation constant Kd worked out at 15 nM, the off-rate (koff) was found to be 0.0045 s⁻¹ and the kon came out at 300000 M⁻¹ s⁻¹. Further, the “differential binding” value in assay [4] is roughly 1000 fold.

The values are drawn from patent US20180079822A1 (UNITED STATES OF AMERICA AS REPRESENTED BY THE SECRETARY OF …, published 2018).
